According to patent publication US20240158509A1 (MOMENTA PHARMACEUTICALS, published 2024):

Assays:
[1] = biological target: endogenously expressed human FcRn (human, UniProt P55899 24-365; P61769 21-119); assay: cell-based or functional assay
[2] = biological target: T1, endogenous cynomolgus monkey FcRn in monocytes (cynomolgus monkey, UniProt Q8SPV9 24-365; Q8SPW0 21-119); assay: target occupancy in vivo: monocytes from lysed whole blood of cynomolgus monkeys after one i.v. dose, fixed and permeabilized, unoccupied FcRn stained with Dy650-labeled N027, FACS
T1 construct: whole, on cells; Target occupancy was measured ex vivo by FACS on fixed and permeabilized monocytes
T1 sequence (Q8SPV9 24-365, chain 1 of 2): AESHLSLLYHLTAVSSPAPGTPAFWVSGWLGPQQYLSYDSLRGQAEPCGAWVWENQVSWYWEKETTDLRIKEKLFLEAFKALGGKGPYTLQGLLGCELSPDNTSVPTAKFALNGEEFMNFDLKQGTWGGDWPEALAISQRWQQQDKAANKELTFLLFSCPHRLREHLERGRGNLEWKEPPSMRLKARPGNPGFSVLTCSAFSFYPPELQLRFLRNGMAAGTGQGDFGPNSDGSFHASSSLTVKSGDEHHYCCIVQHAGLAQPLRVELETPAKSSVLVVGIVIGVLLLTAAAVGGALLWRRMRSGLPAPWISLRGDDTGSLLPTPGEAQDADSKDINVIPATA
T1 sequence (Q8SPW0 21-119, chain 2 of 2): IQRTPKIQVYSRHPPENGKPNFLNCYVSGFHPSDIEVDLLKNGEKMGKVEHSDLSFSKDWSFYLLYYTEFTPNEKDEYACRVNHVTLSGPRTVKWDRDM

intracellular IgG accumulation (VivoTag645-IgG, gMFI), ~IC50, HAECs [1]: ~0.12 µg/mL
intracellular IgG accumulation (VivoTag645-IgG, gMFI), ~IC50, HUVECs [1]: ~0.15 µg/mL
intracellular IgG accumulation (VivoTag645-IgG, gMFI), ~IC50, HVTs [1]: ~0.07 µg/mL
binding result [2]: binds
B1: N027 (antibody, human IgG1, lambda, N297A)
heavy: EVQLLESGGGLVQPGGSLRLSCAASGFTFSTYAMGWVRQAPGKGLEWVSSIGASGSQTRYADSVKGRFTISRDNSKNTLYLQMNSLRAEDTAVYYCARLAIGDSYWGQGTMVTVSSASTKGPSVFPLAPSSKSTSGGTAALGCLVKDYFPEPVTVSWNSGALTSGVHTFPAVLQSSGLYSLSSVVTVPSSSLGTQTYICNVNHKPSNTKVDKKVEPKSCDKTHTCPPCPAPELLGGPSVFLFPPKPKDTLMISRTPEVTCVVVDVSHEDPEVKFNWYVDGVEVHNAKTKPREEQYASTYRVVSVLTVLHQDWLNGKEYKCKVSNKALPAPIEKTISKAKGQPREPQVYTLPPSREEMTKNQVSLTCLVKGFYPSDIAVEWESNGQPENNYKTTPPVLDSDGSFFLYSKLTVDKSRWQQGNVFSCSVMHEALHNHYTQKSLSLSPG
light: QSALTQPASVSGSPGQSITISCTGTGSDVGSYNLVSWYQQHPGKAPKLMIYGDSERPSGVSNRFSGSKSGNTASLTISGLQAEDEADYYCSSYAGSGIYVFGTGTKVTVLGQPKAAPSVTLFPPSSEELQANKATLVCLISDFYPGAVTVAWKADSSPVKAGVETTTPSKQSNNKYAASSYLSLTPEQWKSHKSYSCQVTHEGSTVEKTVAPTECS
notes: Full-length IgG; In the occupancy assays unlabeled N027 was followed by dye-labeled N027 (Dy650, VivoTag645); DyLight594-N027 was used for imaging; also called M281; anti-FcRn antibody N027
